Source: PMC7679444

biological target: GST-HA-ATG16L1(231–607) (UniProt Q676U5); test: peptide microarray; details: 800, 600, 400 nM; n = 9; read off a plot

Substance | percent of parent
TMEM59 peptide (residues 268–280), wild type (from UniProt Q9BXS4) S275del; I276del | 80 % WT
TMEM59 peptide (residues 268–280), wild type (from UniProt Q9BXS4) K273del; I276del | 32 % WT
TMEM59 peptide (residues 268–280), wild type (from UniProt Q9BXS4) L274del | 22 % WT
TMEM59 peptide (residues 268–280), wild type (from UniProt Q9BXS4) I276del | 50 % WT
TMEM59 peptide (residues 268–280), wild type (from UniProt Q9BXS4) K273del | 15 % WT
TMEM59 peptide (residues 268–280), wild type (from UniProt Q9BXS4) S275del | 100 % WT
TMEM59 peptide (residues 268–280), wild type (from UniProt Q9BXS4) V269del; S271del | 180 % WT
TMEM59 peptide (residues 268–280), wild type (from UniProt Q9BXS4) P270del; S271del | 180 % WT
TMEM59 peptide (residues 268–280), wild type (from UniProt Q9BXS4) S271del | 180 % WT
TMEM59 peptide (residues 268–280), wild type (from UniProt Q9BXS4) P270del | 160 % WT
TMEM59 peptide (residues 268–280), wild type (from UniProt Q9BXS4) L274del; S275del | 120 % WT
TMEM59 peptide (residues 268–280), wild type (from UniProt Q9BXS4) L274del; I276del | 20 % WT

Second part, the substance after the results:

percent of parent | Substance
72 % WT | TMEM59 peptide (residues 268–280), wild type (from UniProt Q9BXS4) L274del; S275del; I276del
20 % WT | TMEM59 peptide (residues 268–280), wild type (from UniProt Q9BXS4) V269del
22 % WT | TMEM59 peptide (residues 268–280), wild type (from UniProt Q9BXS4) K273del; L274del
120 % WT | TMEM59 peptide (residues 268–280), wild type (from UniProt Q9BXS4) K273del; L274del; S275del
130 % WT | TMEM59 peptide (residues 268–280), wild type (from UniProt Q9BXS4) V269del; P270del
7 % WT | TMEM59 peptide (residues 268–280), wild type (from UniProt Q9BXS4) K273del; L274del; I276del
160 % WT | TMEM59 peptide (residues 268–280), wild type (from UniProt Q9BXS4) K273del; S275del
